We go through 1 protein from article doi:10.64898/2025.12.23.696137 (bioRxiv, 2025).

The series concerns the molecule itself. Nature of the series: co-IP.

B1: METTL9-FLAG wild type (mouse) (enzyme)
chain: RRMWTLRSPLSRSLYVNMTSGPGGPAAAAGGGKDTHQWYVCNREKLCESLQSVFVQSYLDQGTQIFLNNSIEKSGWLFIQLYHSFVSSVFSLFMSRTSINGLLGRGSMFVFSPDQFQRLLRINPDWKTHRLLDLGAGDGEVTKIMSPHFEEIYATELSETMIWQLQKKKYRVLGINEWQNTGFQYDVISCLNLLDRCDQPLTLLKDIRSVLEPTQGRVILALVLPFHPYVENVGGKWEKPSEILEIKGQNWEEQVNSLPEVFRKAGFVVEAFTRLPYLCEGDMYNDYYVLDDAVFVLRPV
modifications: N-linked glycans at Asn-35 and Asn-86
Regarding B1, the stoichiometry N (commonly the number of molecules, sites or subunits per partner or assembly) amounted to 2.
